Results reported in patent US20210198360 (published 2021).

Tests used:
[1] = biological target: T1, human PD-L2-HIS (human, UniProt Q9BQ51); experiment: BLI, monovalent
T1 chain: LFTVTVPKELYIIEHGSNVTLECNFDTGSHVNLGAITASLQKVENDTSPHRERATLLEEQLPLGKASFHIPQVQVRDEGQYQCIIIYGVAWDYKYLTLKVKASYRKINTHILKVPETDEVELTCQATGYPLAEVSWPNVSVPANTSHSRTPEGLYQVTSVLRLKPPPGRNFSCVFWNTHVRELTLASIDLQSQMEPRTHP

[2] = biological target: human PD-L1-Fc (human); experiment: BLI, bivalent
[3] = biological target: T2, mouse PD-L2-Fc (mouse, UniProt Q9WUL5); experiment: BLI, bivalent
T2 chain: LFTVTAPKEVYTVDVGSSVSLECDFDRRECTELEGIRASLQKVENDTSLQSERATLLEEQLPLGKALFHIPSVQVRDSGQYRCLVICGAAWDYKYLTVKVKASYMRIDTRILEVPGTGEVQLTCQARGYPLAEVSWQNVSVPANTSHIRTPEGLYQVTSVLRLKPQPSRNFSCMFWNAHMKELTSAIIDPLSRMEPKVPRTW

[4] = biological target: human PD1-Fc (human, UniProt Q15116); experiment: BLI, bivalent
[5] = biological target: T3, human PD-L2-Fc (human, UniProt Q9BQ51); experiment: BLI, bivalent
T3 chain: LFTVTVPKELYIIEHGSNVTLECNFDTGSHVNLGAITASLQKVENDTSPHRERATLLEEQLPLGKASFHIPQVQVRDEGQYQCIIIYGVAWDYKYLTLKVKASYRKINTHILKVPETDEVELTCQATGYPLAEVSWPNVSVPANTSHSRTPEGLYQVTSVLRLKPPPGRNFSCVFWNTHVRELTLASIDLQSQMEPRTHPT

[6] = biological target: T3, human PD-L2-Fc; experiment: BLI, monovalent
[7] = biological target: T4, mouse PD-L1-Fc (mouse, UniProt Q9EP73); experiment: BLI, bivalent
[8] = biological target: human PD-L1-Fc (human); experiment: BLI
[9] = biological target: T4, mouse PD-L1-Fc; experiment: BLI, bivalent; remark: listed apart in the source

Chain of human PD1-Fc (Q15116 25-170): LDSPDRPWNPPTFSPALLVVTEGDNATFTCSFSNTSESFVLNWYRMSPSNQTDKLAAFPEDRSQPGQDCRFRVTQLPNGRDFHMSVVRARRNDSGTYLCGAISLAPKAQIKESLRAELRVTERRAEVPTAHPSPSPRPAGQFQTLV
T4 sequence (Q9EP73 19-239): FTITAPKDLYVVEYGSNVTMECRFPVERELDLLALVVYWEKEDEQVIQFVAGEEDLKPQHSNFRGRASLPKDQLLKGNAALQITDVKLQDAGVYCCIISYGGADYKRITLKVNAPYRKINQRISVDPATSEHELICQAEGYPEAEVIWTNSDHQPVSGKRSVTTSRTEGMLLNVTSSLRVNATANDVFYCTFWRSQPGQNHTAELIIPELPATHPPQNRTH
Chain of human PD-L1-Fc (human) (chain, as listed by the source): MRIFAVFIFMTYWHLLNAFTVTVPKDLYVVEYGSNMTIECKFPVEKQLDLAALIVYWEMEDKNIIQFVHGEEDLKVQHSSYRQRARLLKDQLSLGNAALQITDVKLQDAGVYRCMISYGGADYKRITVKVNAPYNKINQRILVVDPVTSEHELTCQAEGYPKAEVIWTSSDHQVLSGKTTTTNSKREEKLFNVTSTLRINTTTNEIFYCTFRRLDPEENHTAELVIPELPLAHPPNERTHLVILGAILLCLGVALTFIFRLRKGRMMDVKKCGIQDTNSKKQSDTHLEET

Binder | binding result [1] | Kd [2] | binding result [3] | binding result [4] | binding result [5] | binding result [6] | binding result [7] | Kd [8] | Kd [9]
ADI-20803 (antibody, V domains shown) VH: QVQLVQSGAEVKKPGSSVKVSCKASGGTFRLYAISWVRQAPGQGLEWMGSIIPGFGSANYAQKFQGRVTITADESTSTAYMELSSLRSEDTAVYYCARDGGGGTSAYSFDPWGQGTLVTVSS VL: EIVLTQSPATLSLSPGERATLSCRASQSVSSYLAWYQQKPGQAPRLLIYDASNRATGIPARFSGSGSGTDFTLTISSLEPEDFAVYYCQQSINFPYTFGGGTKVEIK | no binding | 0.188 nM | no binding | no binding | no binding |  |  |  | 
ADI-20803 Fab (antibody, V domains shown) VH: QVQLVQSGAEVKKPGSSVKVSCKASGGTFRLYAISWVRQAPGQGLEWMGSIIPGFGSANYAQKFQGRVTITADESTSTAYMELSSLRSEDTAVYYCARDGGGGTSAYSFDPWGQGTLVTVSS VL: EIVLTQSPATLSLSPGERATLSCRASQSVSSYLAWYQQKPGQAPRLLIYDASNRATGIPARFSGSGSGTDFTLTISSLEPEDFAVYYCQQSINFPYTFGGGTKVEIK |  |  |  |  |  | no binding |  |  | 
ADI-16403 (antibody, V domains shown) VH: EVQLVESGGGLVQPGGSLRLSCAASGFTFSSYWMSWVRQAPGKGLEWVANIKSDGSEKYYVDSVKGRFTISRDNAKNSLYLQMNSLRAEDTAVYYCARVTYWADYMDVWGKGTTVTVSS VL: DIQMTQSPSTLSASVGDRVTITCRASQSISSWLAWYQQKPGKAPKLLIYKASSLESGVPSRFSGSGSGTEFTLTISSLQPDDFATYYCQQSGSLPPTFGGGTKVEIK |  |  | no binding | no binding | no binding |  | no binding |  | 
ADI-20227 (antibody, V domains shown) VH: QVQLQESGPGLVKPSQTLSLTCTVSGGSIVSGGLYWSWIRQHPGKGLEWIGYIYYAGVTYYNPSLKSRVTISVDTSKNQFSLKLSSVTAADTAVYYCARGPRMGLAGMDVWGQGTTVTVSS VL: DIQMTQSPSSVSASVGDRVTITCRASQGISSWLAWYQQKPGKAPKLLIYAASSLQSGVPSRFSGSGSGTDFTLTISSLQPEDFATYYCQQANSFPITFGGGTKVEIK | no binding |  | no binding | no binding | no binding |  |  | 0.179 nM | 0.101 nM
ADI-20227 Fab (antibody, V domains shown) VH: QVQLQESGPGLVKPSQTLSLTCTVSGGSIVSGGLYWSWIRQHPGKGLEWIGYIYYAGVTYYNPSLKSRVTISVDTSKNQFSLKLSSVTAADTAVYYCARGPRMGLAGMDVWGQGTTVTVSS VL: DIQMTQSPSSVSASVGDRVTITCRASQGISSWLAWYQQKPGKAPKLLIYAASSLQSGVPSRFSGSGSGTDFTLTISSLQPEDFATYYCQQANSFPITFGGGTKVEIK |  |  |  |  |  | no binding |  |  | 
